Test results from patent US20180022822A1, “NOVEL ANTI-FIBROBLAST ACTIVATION PROTEIN (FAP) BINDING AGENTS AND USES THEREOF” (Mabimmune Diagnostics AG, priority 2016, published 2018).

Key:
[1] = target: T1, rhFAP and FAP homologues (DPP4, DPP8, DPP9, POP/PREP) (Homo sapiens, UniProt Q12884); test: inhibition assays on SB9 oligopeptidase family enzymes; assay type: biochemical; conditions: 0-1000 nM antibody
T1 construct: purchased Sino Biologicals 10464-H07H
T1 sequence (Q12884 26-760 limits assumed): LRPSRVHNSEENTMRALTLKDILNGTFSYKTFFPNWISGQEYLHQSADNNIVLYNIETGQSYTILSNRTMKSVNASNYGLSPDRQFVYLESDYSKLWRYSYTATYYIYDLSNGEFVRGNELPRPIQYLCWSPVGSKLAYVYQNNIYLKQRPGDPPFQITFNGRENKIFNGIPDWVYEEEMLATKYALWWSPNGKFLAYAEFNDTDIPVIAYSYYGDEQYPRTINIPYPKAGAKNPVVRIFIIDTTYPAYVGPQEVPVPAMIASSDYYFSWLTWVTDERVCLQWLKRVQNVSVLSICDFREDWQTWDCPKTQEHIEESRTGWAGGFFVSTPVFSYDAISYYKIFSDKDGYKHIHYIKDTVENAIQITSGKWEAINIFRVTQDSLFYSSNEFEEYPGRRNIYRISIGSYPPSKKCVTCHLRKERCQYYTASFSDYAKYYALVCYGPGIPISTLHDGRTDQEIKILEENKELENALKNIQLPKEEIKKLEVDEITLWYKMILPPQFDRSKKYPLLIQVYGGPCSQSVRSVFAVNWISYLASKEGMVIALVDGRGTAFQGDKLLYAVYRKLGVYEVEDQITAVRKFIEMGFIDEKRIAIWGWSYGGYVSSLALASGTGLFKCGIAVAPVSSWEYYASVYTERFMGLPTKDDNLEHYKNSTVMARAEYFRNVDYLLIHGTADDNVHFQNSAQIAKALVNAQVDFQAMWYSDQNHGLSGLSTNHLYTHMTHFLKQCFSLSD
Description: To determine the inhibitory ability of the antibody a black 96 well plate was blocked for 1 h with blocking buffer. NI-206.82C2 was pipetted at concentrations of 1000, 50, 10, 3.03, 1.01, 0.031, 0.001, and 0 nM in PBS into the according wells. The enzymes were added at a concentration of 0.2 nM. Finally, fluorgenic substrates were then added to the well at a concentration equal to the Michaelis constant (Km) and the velocity of the substrate cleavage was quantified by fluorescence at 360 nm excitation and 460 nm emission. H-Gly-Pro-AMC (AAT Bioquest, 13450) was used for DPP4, DPP9, and DPP8. Z-Gly-Pro-AMC (BaChem, 11145) was used to evaluate the activity of POP/PREP. FAP activity was assessed using DQ-gelatin (Life Technologies, D12054) and cleavage quantified at 495 nm excitation and 515 nm emission.

[2] = tested on: MOPC315.BM multiple myeloma cells and tumor stroma; test: immunofluorescence on murine multiple myeloma bone tissue; design: species or system mouse; conditions: Cy5 labelled antibody, bone sections
Description: BALB/c mice were injected with 2×10^6 of the murine multiple myeloma cell line […] intravenously. BALB/c mice were injected with a vehicle-only control. Bone tissue was harvested and fixed in 4% PFA, decalcified in 10% EDTA (pH 7.4), embedded in paraffin before being sectioned (4 μm) and rehydrated. Then, CD138 mAb (Clone 281-2, BD Pharmingen) and Cy5 labelled NI-206.82C2 were used to identify MOPC315.BM.Luc cell infiltration, and NI-206.82C2 binding to these cells and surrounding stromal cells in the tissue sections. Stained tissue sections were then imaged using a fluorescent microscope (FIG. 13).

[3] = tested on: human invasive ductal carcinoma and invasive lobular carcinoma sections; test: confocal immunofluorescence on human carcinoma cryosections; conditions: Cy3 labelled antibody
Description: NI-206.82C2 was labelled with Cyanine 3 for fluorescent imaging (Cy3 conjugation kit: Innova Biosciences, 340-0030) and antibody labelling was validated using a spectophotometer. Cryosections from human invasive ductal carcinoma tissues (FIG. 9, A) and invasive lobular carcinoma (FIG. 9, B) were fixed for 5 minutes in ice cold acetone and allowed to dry for 10 minutes before washing in PBS. The sections were then incubated for 1 hr at room temperature in 5% BSA in PBS. The tissue sections were then incubated with Cyanine 3 prelabelled antibodies overnight at 4° C., and then washed three times in PBS before incubation with DAPI at 0.5 μg/mL. Sections were then washed three additional times in PBS and mounted in Lisbeth's mounting medium before imaging on a SP8 confocal microscope (Leica Microsystems).

[4] = tested on: human breast cancer tissue sections; test: immunohistochemistry on human breast cancer tissue sections; conditions: chimeric form with murine constant domain, 10 μg/mL, DAB
Description: Human breast cancer tissue sections were allowed to dry for 10 min at room temperature, and then fixed for 15 minutes in 4% paraformaldahyde, followed by washing three times 5 minutes in PBS. Slides were then incubated for 5 min in 0.3% H2O2 in PBS to block endogenous peroxidase activity, and subsequently washed 3 times 5 min in PBS. Endogenous biotin was then blocked using the Biotin-Blocking System (DAKO X0590), followed by times washing with PBS. Blocking of unspecific antibody binding and permeabilization of the tissue section was performed using blocking buffer (5% goat serum, 5% horse serum, 0.3M glycine, 5% BSA, and 0.5% Triton X100 in PBS). Tissue sections were then stained with a recombinantly engineered chimeric form of NI-206.82C2 with a murine constant domain and the human variable domain of the original antibody and a matched isotype control (43A11) at 10 μg/mL in permeabilization buffer overnight at 4° C. Following three PBS washing steps, the sections were incubated with a biotinylated goat anti-mouse antibody for 1 h at room temperature. For amplifying the target antigen the VECTASTAIN ABC kit (Vector Labs) was used, followed by development with 3,3′-diaminobenzidine (DAB) and counterstained with Mayer's haematoxylin blue. […]

[5] = tested on: human blood plasma clotting; test: rotational thromboelastometry (ROTEM, NATEM) of human blood plasma
Description: Two batches of peripheral blood were taken from a single healthy subject in sodium citrate tubes and platelet-free blood plasma was prepared by centrifugation. Blood plasma from each tube was pooled and immediately aliquoted for storage at −80° C. The plasma has an FAP level of 130 ng/ml by ELISA. Plasma samples were treated with NI-206.82C2 (n=3) against FAP or 43A11 control (n=3) diluted in sterile saline and added to fresh fast thawed plasma such that the final concentration of antibody in the sample was 0.000667 nM, 0.00667 nM, 0.0667 nM, 0.667 nM 6.667 nM of plasma. Following 1 hr incubation with the antibody at 37° C., NATEM analysis was performed according to the manufacturer's instructions by using STAR-TEM reagent to observe the native blood clotting process after an incubation time with the antibodies of 1 h at 37° C. with the antibody before starting measurement. Statistical analysis was performed using a two-way ANOVA (*p<0.05, ** p<0.01, *** p<0.005, **** p<0.001).

[6] = increasing antibody concentrations

binding to human invasive ductal and invasive lobular carcinoma sections [3]: specifically binds
B1: NI-206.82C2: human-derived recombinant anti-FAP antibody; VH SEQ ID NO: 2 or 4 (PIMC), VL SEQ ID NO: 6 (antibody, V domains shown)
VH: QVQLQQSGPGLVKPSQTLSLTCAISGDSVSSNSVTWNWIRQSPSRGLEWLGRTYYRSKWYNDYAVSVKGRITINPDTSKNQFYLQLKSVTPEDAAVYYCARDSSILYGDYWGQGTLVTVSS
VL: QAVLTQPSSLSASPGASASLTCTLPSGINVGTYRIFWFQQKPGSPPQYLLSYKSDSDNHQGSGVPSRFSGSKDASANAGILLISGLQSEDEADYYCMIWHSSAWVFGGGTKLTVL
inhibition selectivity for rhFAP over FAP homologues [1]: selectively inhibits rhFAP, but not FAP homologues
binding in the syngeneic MOPC315.BM mouse model [2]: binds to multiple myeloma cells and tumor stroma
staining of human ductal carcinoma in-situ tissue [4]: Positive staining
staining of human invasive ductal carcinoma tissue [4]: Positive staining
clot formation time ([5]; 0.000667-6.667 nM antibody): dose dependent prolongation
clot rigidity [5, 6]: reduces
maximum clot elasticity [5, 6]: decreases
maximum clotting angle [5, 6]: reduces
